Data from PMC6657692 (Cellular microbiology, 2018).

B1: αL cytoplasmic tail peptide (integrin αL, LFA-1 α subunit) (peptide)
peptide: CKVGFFKRNLKEKMEAGRGVPNGIPAEDSEQLASGQEAGDPGSLKPLHEKDSESGGGKD

What follows are binders tested against T1, Aggregatibacter actinomycetemcomitans leukotoxin (LtxA) (Aggregatibacter actinomycetemcomitans …, UniProt P16462 1-1055) (assay: SPR).
T1 sequence: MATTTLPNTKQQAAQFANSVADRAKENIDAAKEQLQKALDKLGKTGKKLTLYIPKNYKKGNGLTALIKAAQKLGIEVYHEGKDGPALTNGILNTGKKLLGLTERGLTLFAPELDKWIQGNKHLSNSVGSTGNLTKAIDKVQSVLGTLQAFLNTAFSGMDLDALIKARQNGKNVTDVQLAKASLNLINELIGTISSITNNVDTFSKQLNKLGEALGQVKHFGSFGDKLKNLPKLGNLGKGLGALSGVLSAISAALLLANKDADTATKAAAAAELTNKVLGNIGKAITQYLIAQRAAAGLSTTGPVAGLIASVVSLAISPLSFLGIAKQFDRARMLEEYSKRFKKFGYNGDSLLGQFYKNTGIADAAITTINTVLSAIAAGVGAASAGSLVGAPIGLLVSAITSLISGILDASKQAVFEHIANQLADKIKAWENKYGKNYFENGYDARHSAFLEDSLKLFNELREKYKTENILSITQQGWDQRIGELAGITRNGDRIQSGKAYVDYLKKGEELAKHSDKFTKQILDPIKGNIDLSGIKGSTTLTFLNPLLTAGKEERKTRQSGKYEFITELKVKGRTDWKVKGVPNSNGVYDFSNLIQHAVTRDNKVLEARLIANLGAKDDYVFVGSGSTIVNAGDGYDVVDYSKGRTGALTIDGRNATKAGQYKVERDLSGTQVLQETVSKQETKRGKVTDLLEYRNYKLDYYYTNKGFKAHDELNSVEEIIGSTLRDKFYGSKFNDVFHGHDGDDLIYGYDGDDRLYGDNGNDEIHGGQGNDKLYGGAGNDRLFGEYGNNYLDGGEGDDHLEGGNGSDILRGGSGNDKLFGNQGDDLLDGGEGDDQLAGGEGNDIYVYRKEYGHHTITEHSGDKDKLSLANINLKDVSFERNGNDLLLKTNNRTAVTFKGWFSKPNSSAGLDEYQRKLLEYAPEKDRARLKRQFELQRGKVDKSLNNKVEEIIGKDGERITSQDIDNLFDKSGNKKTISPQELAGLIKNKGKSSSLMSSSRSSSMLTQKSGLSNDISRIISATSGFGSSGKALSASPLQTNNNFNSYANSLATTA

First: CKVGFFKRNLKEKMEAGRGVPNGI [αLN peptide (N-terminal, membrane-proximal part of the αL cytoplasmic tail)]
Second: CKALIHLSDLREYRRFEKEKLKSQ [β2N peptide (N-terminal part of the β2 cytoplasmic tail)]
The Ka of the first is 6.9-fold higher: 6.6e+07 M⁻¹ for the first, 9.6e+06 M⁻¹ for the second.

Going from CLKSQWNNDNPLFKSATTTVMNPKFAES [β2C peptide (C-terminal part of the β2 cytoplasmic tail)] to CKVGFFKRQYKEMMEEANGQIAPENGTQTPSPPSEK [αX cytoplasmic tail peptide (integrin αX)], the Ka falls from 2e+07 M⁻¹ to 5.7e+06 M⁻¹ (3.5-fold).

Going from CKLGFFKRQYKDMMSEGGSPGAEPQ [αM cytoplasmic tail peptide (integrin αM)] to CKALIHLSDLREYRRFEKEKLKSQWNNDNPLFKSATTTVMNPKFAES [β2 cytoplasmic tail peptide (integrin β2, LFA-1 β subunit)], the Ka rises from 2.5e+06 M⁻¹ to 2.4e+08 M⁻¹ (96-fold).

First: B1
Second: CGQEAGDPGSLKPLHEKDSESGGGKD [αLC peptide (C-terminal, membrane-distal part of the αL cytoplasmic tail)]
The Ka of the first is 190-fold higher: 6.9e+07 M⁻¹ for the first, 370000 M⁻¹ for the second.

Compared with CKLLITIHDRKEFAKFEEERARAKWDTANNPLYKEATSTFTNITYRGT [β3 cytoplasmic tail peptide (integrin β3)], CKALIHLSDLREYRRFEKEKLKSQWNN [β2N2 peptide (longer N-terminal part of the β2 cytoplasmic tail, with WNN)] is 25-fold higher in Ka: 4.4e+06 M⁻¹ for the first, 1.1e+08 M⁻¹ for the second.

First: CKVGFFKRNLKEKMEAGRGVPNGI [αLN peptide (N-terminal, membrane-proximal part of the αL cytoplasmic tail)]
Second: CKALIHLSDLREYRRFEKEKLKSQ [β2N peptide (N-terminal part of the β2 cytoplasmic tail)]
The Kd of the first is 6.9-fold lower: 16 nM for the first, 110 nM for the second.

Going from CLKSQWNNDNPLFKSATTTVMNPKFAES [β2C peptide (C-terminal part of the β2 cytoplasmic tail)] to CKVGFFKRQYKEMMEEANGQIAPENGTQTPSPPSEK [αX cytoplasmic tail peptide (integrin αX)], the Kd rises from 51 nM to 180 nM (3.5-fold). The first binds more tightly here.

First: CKLGFFKRQYKDMMSEGGSPGAEPQ [αM cytoplasmic tail peptide (integrin αM)]
Second: CKALIHLSDLREYRRFEKEKLKSQWNNDNPLFKSATTTVMNPKFAES [β2 cytoplasmic tail peptide (integrin β2, LFA-1 β subunit)]
The Kd of the first is 95-fold higher: 400 nM for the first, 4.2 nM for the second. The second binds more tightly here.

First: B1
Second: CKLLITIHDRKEFAKFEEERARAKWDTANNPLYKEATSTFTNITYRGT [β3 cytoplasmic tail peptide (integrin β3)]
The Kd of the first is 15-fold lower: 15 nM for the first, 230 nM for the second.

For CKALIHLSDLREYRRFEKEKLKSQWNN [β2N2 peptide (longer N-terminal part of the β2 cytoplasmic tail, with WNN)], the Kd was 9.4 nM.

Going from CKVGFFKRNLKEKMEAGRGVPNGI [αLN peptide (N-terminal, membrane-proximal part of the αL cytoplasmic tail)] to CKALIHLSDLREYRRFEKEKLKSQ [β2N peptide (N-terminal part of the β2 cytoplasmic tail)], the koff rises from 0.00013 s⁻¹ to 0.00063 s⁻¹ (4.8-fold).

Compared with CLKSQWNNDNPLFKSATTTVMNPKFAES [β2C peptide (C-terminal part of the β2 cytoplasmic tail)], CKVGFFKRQYKEMMEEANGQIAPENGTQTPSPPSEK [αX cytoplasmic tail peptide (integrin αX)] is 71-fold higher in koff: 0.00031 s⁻¹ for the first, 0.022 s⁻¹ for the second.

Compared with CKLGFFKRQYKDMMSEGGSPGAEPQ [αM cytoplasmic tail peptide (integrin αM)], CKALIHLSDLREYRRFEKEKLKSQWNNDNPLFKSATTTVMNPKFAES [β2 cytoplasmic tail peptide (integrin β2, LFA-1 β subunit)] is 110-fold lower in koff: 0.011 s⁻¹ for the first, 0.0001 s⁻¹ for the second.

Compared with B1, CKLLITIHDRKEFAKFEEERARAKWDTANNPLYKEATSTFTNITYRGT [β3 cytoplasmic tail peptide (integrin β3)] is 49-fold higher in koff: 0.00012 s⁻¹ for the first, 0.0059 s⁻¹ for the second.

Binder CKALIHLSDLREYRRFEKEKLKSQWNN [β2N2 peptide (longer N-terminal part of the β2 cytoplasmic tail, with WNN)] has a koff of 0.00013 s⁻¹.

CKVGFFKRNLKEKMEAGRGVPNGI [αLN peptide (N-terminal, membrane-proximal part of the αL cytoplasmic tail)] and CKALIHLSDLREYRRFEKEKLKSQ [β2N peptide (N-terminal part of the β2 cytoplasmic tail)] are within 1.5-fold of each other in kon: 8400 M⁻¹ s⁻¹ for the first, 6100 M⁻¹ s⁻¹ for the second.

Going from CLKSQWNNDNPLFKSATTTVMNPKFAES [β2C peptide (C-terminal part of the β2 cytoplasmic tail)] to CKVGFFKRQYKEMMEEANGQIAPENGTQTPSPPSEK [αX cytoplasmic tail peptide (integrin αX)], the kon rises from 6100 M⁻¹ s⁻¹ to 130000 M⁻¹ s⁻¹ (21-fold).

CKLGFFKRQYKDMMSEGGSPGAEPQ [αM cytoplasmic tail peptide (integrin αM)] and CKALIHLSDLREYRRFEKEKLKSQWNNDNPLFKSATTTVMNPKFAES [β2 cytoplasmic tail peptide (integrin β2, LFA-1 β subunit)] are within 1.5-fold of each other in kon: 28000 M⁻¹ s⁻¹ for the first, 24000 M⁻¹ s⁻¹ for the second.

Compared with B1, CKLLITIHDRKEFAKFEEERARAKWDTANNPLYKEATSTFTNITYRGT [β3 cytoplasmic tail peptide (integrin β3)] is 3.1-fold higher in kon: 8500 M⁻¹ s⁻¹ for the first, 26000 M⁻¹ s⁻¹ for the second.

For CKALIHLSDLREYRRFEKEKLKSQWNN [β2N2 peptide (longer N-terminal part of the β2 cytoplasmic tail, with WNN)], the kon was 14000 M⁻¹ s⁻¹.
